The text below walks through data of patent publication US20170267762A1 (APOLLOMICS, published 2017).

First the molecules themselves.
T1: human ICOS (human, UniProt Q9Y6W8 21-140, limits assumed)
T1 sequence (looked up): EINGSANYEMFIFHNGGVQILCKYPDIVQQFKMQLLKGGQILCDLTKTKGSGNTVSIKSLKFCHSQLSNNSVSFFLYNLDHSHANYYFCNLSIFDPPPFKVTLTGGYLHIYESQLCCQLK

T2: human CTLA4 (human, UniProt P16410 36-161, limits assumed)
T2 sequence (looked up): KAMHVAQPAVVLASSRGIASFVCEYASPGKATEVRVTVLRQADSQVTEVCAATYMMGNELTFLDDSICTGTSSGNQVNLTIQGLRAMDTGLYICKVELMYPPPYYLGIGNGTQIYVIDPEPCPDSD

T3: mouse PD-1 (mouse, UniProt Q02242 25-169, limits assumed)
T3 sequence (looked up): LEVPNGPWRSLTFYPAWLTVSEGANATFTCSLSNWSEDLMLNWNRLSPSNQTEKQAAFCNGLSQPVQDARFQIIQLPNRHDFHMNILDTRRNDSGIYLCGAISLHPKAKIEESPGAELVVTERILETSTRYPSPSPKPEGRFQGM

B1: 13F1 murine anti-PD-1 antibody (antibody, V domains shown)
VH: DVQLQESGPGLVKPSQSLSLTCTVTGYSITSDYAWNWIRQFPGNQLEWMAYISYSGYTSYNPSLKSRISITRDTSKNQFFLQLNSVTTEDTATYYCARSLDYDYGTMDYWGQGTSVTVSS
VL: QIVLSQSPAILSASPGEKVTMTCRANSSVSSMHWYQQKPGSSPEPWIYAISNLAFGVPTRFSGSGSGTSYSLTISRVEAEDAATYFCQQWSSRPPTFGGGTKLEIKR
notes: Purified hybridoma antibody; also called 13F1-mIgG1
B2: 15H5 murine anti-PD-1 antibody (antibody, V domains shown)
VH: EVKLVESGGGLVKPGGSLKLSCAASGFAFRSYDMSWVRQTPEKILEWVATISGGGSYTYYQDSVKGRFTISRDNARNTLYLQMSSLRSEDTALYYCASPYGPYFDYWGQGTTLTVSS
VL: DIQMNQSPSSLSASLGDTITITCHASQSINVWLSWYQQKPGNIPKLLIYRASNLHTGVPSRFSGSGSGTGFTLTISSLQPDDIATYYCQQGQSYPWTFGGGTKLEIKR
notes: Purified hybridoma antibody; also called 15H5-mIgG1
B3: 22A5 murine anti-PD-1 antibody (antibody, V domains shown)
VH: EVKLVESGGGLVKPGGSLKLSCSASGFSFSYYDMSWVRQTPEKGLEWVATISGGGRNTYFIDSVKGRFTISRDNVKNNLYLLMSSLRSEDTALYYCASPYEGAVDFWGQGTSVTVSS
VL: DIVMTQSHKVMSTSVGDRVSITCKASQDVDNAVAWYQQNPGQSPKLLIKWASTRHHGVPDRFTGSGSGTDFTLTISTVQSEDLADFFCQQYSTFPYTFGGGTKLEIKR
notes: Purified hybridoma antibody; also called 22A5-mIgG1
B4: 7A4 murine anti-PD-1 antibody (antibody, V domains shown)
VH: QIHLVQSGPELKKPGETVKISCKASGYTFTNFGMNWVKQAPGKGLKWMGWISGYTREPTYAADFKGRFAISLETSASTAYLQINDLKNEDMATYFCARDVFDYWGQGTTLTVSS
VL: DIVLTQSPASLAVSLGQRATISCRASESVDNYGYSFMNWFQQKPGQPPKLLIYRASNLESGIPARFSGSGSRTNFTLTINPVEADDVATYFCQQSNADPTFGGGTNLEIKR
notes: Purified hybridoma antibody; also called 7A4-mIgG1

T7 sequence (chain, as listed by the source limits assumed): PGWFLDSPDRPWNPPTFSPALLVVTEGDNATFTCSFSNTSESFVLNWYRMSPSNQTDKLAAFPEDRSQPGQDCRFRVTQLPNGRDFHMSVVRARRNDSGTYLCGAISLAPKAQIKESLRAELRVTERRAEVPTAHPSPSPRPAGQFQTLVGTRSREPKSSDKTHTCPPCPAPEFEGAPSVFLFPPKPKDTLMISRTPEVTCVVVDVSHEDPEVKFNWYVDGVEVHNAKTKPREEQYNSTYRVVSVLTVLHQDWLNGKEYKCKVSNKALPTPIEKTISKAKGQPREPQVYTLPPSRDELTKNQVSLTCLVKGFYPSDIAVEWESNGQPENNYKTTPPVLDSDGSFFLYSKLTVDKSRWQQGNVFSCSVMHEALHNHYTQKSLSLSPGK
T4 sequence (Q15116 25-170): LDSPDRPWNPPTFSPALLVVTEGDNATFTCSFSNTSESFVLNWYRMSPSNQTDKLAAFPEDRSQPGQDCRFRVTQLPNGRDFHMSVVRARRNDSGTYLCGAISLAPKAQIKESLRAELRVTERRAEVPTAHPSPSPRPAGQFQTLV
T5 sequence (Q15116 25-167 limits assumed): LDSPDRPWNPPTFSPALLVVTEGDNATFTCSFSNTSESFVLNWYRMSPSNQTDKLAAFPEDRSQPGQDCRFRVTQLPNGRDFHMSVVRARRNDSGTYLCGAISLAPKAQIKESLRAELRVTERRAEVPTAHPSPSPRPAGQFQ

One assay concerns the target T4, human PD-1 extracellular domain fused with mouse Fc (PD-1-mFc) (human, UniProt Q15116 25-170).
T4 construct: extracellular domain; not used because of the label; also called hPD-1-mFc; human PD-1-mouse Fc fusion protein
The assay is described as follows: blockage ELISA, competitor PDL-1-mFc-biotin (summary table; IC50 in ng/ml in Table 2). On the procedure: (§1) PD-1-mFc antigen (CrownBio) was suspended in PBS (Hyclone,Cat No:SH30256.01B) buffer (2 ug/ml, 100 ul/ well) and coated on the 96 well plate (costar, Cat No.:9018) 4° C. overnight. Plates were washed 3 times using washing buffer: PBS+0.05% Tween 20(Sigma, Cat No.:P1379). 200 ul of blocking buffer (PBS+1%BSA(Roche, Cat No.:738328)), was added to each well, incubated at 37° C. for 1 hour, and washed 3 times. Various concentrations (suitable dilutions of hybridoma supernatant in PBS) of the anti-PD-1 Abs were added to the wells (100 μl/well) and incubated at 37° C. for 1 hour. […] Secondary antibody (Avidin HRP eBioscience cat No.:E07418-1632, 1:500, 100 ul/well) was added, incubated at 37 ° C. for 0.5 hour, and washed 3 times. TMB (Sigma, Cat No.: T0440, 100 ul/well) was added, and incubated for 3 min at RT. To stop the reaction, 2N H2SO4 (100 ul/well), was added. The colorimetric signals were developed and read at 450 nm using a Auto Plate SpectraMax Plus (Supplier: Molecular Devices; Model: MNR0643; Software: SoftMax Pro v5.4).
(In an ELISA, binding on a coated surface is turned into a signal by an enzyme label.)
As to B1, the IC50 – broadly, the concentration at which inhibition is half-maximal – amounted to 0.701 µg/mL.

For the molecule B2, the IC50 was 0.873 µg/mL.

For the molecule B3, the IC50 was found to be 1.11 µg/mL.

B4: the IC50 is 0.699 µg/mL.

The target in a further assay is T1, human ICOS. The assay is described as follows: Interaction with CTLA4, ICOS CD28; assay not detailed.
In the case of B1, the binding result is reported as “no binding”.

On to B2, for which the binding result was “no binding”.

Turning to B3, the binding result was “no binding”.

On to B4, for which the binding result is “no binding”.

The next assay deals with human CD28 (human, UniProt P10747 19-152, limits assumed). The description is as above.
Chain of human CD28 (P10747 19-152 limits assumed): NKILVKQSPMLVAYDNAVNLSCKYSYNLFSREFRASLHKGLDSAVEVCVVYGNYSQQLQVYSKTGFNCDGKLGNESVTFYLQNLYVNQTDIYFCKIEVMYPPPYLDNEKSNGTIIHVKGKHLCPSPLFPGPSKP
In the case of B1, the binding result is “no binding”.

Regarding B2, the binding result is listed as “no binding”.

B3: the binding result is reported as “no binding”.

Turning to B4, the binding result is recorded as “no binding”.

The target of a further assay is T2, human CTLA4. The assay is described as above.
As to B1, the binding result was “no binding”.

In the case of B2, the binding result was “no binding”.

Regarding B3, the binding result was “no binding”.

For the molecule B4, the binding result is “no binding”.

A further assay addresses T5, human PD-1 (construct not stated) (human, UniProt Q15116 25-167, limits assumed).
T5 construct: also called PD-1 analyte
The experiment in a line: Biacore, antibody captured, PD-1 analyte. On the procedure:
(§2) To further characterize the binding characteristics of the antibodies, 10 hybridoma antibodies were profiled using Biacore (Biacore 3000, GE) to elucidate binding kinetics and calculate equilibrium binding constants. This assay was performed by capture method, using the mouse antibody capture kit (BR-1008-38, GE). After diluting anti-mouse Fc mab to 25 μg/ml in pH 5.0 immobilization buffer, immobilization was conducted with the parameters shown in Table 6 at a flow rate of 5 μl/min. The kinetic runs were done by 1) injecting ligand for typical 0.5-1 min at flow rate of 10 μl/min.; 2) injecting analytes of choice for typical 3 min followed by dissociation in running buffer (1× PBS-P20) for typical 5-10 min at flow rate of 30 μl/min.; and 3) injecting regeneration solution 10 mM Glycine pH1.7 for typical 1-2 min at flow rate of 10 μl/min.
In general terms: SPR reads the build-up and loss of mass on a sensor chip optically.
For the molecule B1, the Ka amounted to 3.6e+10 M⁻¹; the Kd (commonly the free concentration of one partner at which half of the binding sites on the other are occupied at equilibrium, for simple one-to-one binding) stood at 0.0278 nM; the koff (commonly the first-order rate constant of dissociation) is 3.92e-05 s⁻¹; the kon (usually the second-order rate constant of association) is 1.41e+06 M⁻¹ s⁻¹.

B2: the Ka was found to be 5.44e+10 M⁻¹, the Kd is 0.0184 nM, the koff amounted to 3.67e-05 s⁻¹ and the kon was 2e+06 M⁻¹ s⁻¹.

Consider B3, for which the Ka came out at 5.17e+10 M⁻¹, binding was characterised by a dissociation constant (Kd) of 0.0193 nM, the koff amounted to 2.88e-05 s⁻¹ and the kon is 1.49e+06 M⁻¹ s⁻¹.

Take B4: the Ka worked out at 4.06e+10 M⁻¹; the affinity, expressed as Kd, was 0.0246 nM; the koff worked out at 4.82e-05 s⁻¹; the kon was 1.96e+06 M⁻¹ s⁻¹.

The target in another assay is T4, human PD-1 extracellular domain fused …. The experiment in a line: blockage ELISA, coated PD-1-mFc, competitor PDL-1-mFc-biotin. On the procedure: as §1
(§3) The purified hybridoma antibodies were characterized further based on ELISA and FACS analyses.
Molecule B1 yielded an IC50 of 0.701 µg/mL.

With B2, the IC50 came out at 0.873 µg/mL.

Regarding B3, the IC50 was determined as 1.11 µg/mL.

For the molecule B4, the IC50 was 0.699 µg/mL.

For another assay, the target named is T6, human PD-1 on cells (293T cells transfected with human PD-1) (human, UniProt Q15116 25-288).
T6 construct: whole, on cells; Also used as the target for the functional rows, where PD-1 stands on human T cells
T6 sequence (Q15116 25-288): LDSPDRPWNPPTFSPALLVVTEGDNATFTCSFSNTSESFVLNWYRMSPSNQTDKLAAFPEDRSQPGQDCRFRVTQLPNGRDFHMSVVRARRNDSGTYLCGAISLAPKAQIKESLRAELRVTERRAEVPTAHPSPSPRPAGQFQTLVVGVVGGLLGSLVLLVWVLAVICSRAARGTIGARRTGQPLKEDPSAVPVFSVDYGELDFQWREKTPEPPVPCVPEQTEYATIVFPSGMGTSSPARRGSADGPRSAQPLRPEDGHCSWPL
The assay is described as follows: FACS blockage on hPD-1-293T cells, competitor biotin PD-L2. On the procedure:
(§4) Various concentrations of the testing hybridoma antibodies were added to the cell suspension and incubated at 4° C. for 60 minutes in 96 well plates. […] Plates were washed 3 times, and mouse anti-biotin PE antibody (Biolgend, cat# 409004) was added. Flow cytometric analyses were performed using a FACS Array.
as §3
As to B1, the IC50 was 0.0529 µg/mL.

The molecule B2 displayed an IC50 of 0.063 µg/mL.

B3 displayed an IC50 of 0.21 µg/mL.

B4 displayed an IC50 of 0.00445 µg/mL.

The next assay has as its target T7, human PD-1 extracellular domain fused with human Fc tag (hPD-1-hFc) (human).
T7 construct: also called human PD-1-hFc
The experiment in a line: ELISA on coated PD1-hFc. On the procedure: (§5) ELISA binding analysis was conducted based on human PD-1-hFc Protein. 96-well plates (Costar, Cat No:9018) were coated with 100 μL of 2 μg/ml PD1-hFc (CrownBio) in coating buffer (PBS, Hyclone, Cat No:SH30256.01B) overnight at 4° C. The wells were aspirated and non-specific binding sites were blocked by adding 200 μL of blocking buffer with 1% (w/v) of bovine serum albumin (BSA, Roche, Cat No: 738328) and incubating for 1 hour at 37° C. After the plates are washed three times with wash buffer (PBS with 0.05%(v/v) Tween20 (Sigma, Cat No:P1379), 100 μL/well of a suitable dilutions of hybridoma supernatant in blocking buffer were added and incubated at room temperature for 1 hour. The plates were washed and incubated with 100 μL/well of Goat anti-Mouse IgG (H+L) (Thermo, Cat No: 31432) in blocking buffer for 60 min. After the plates were washed, 100 μL/well of substrate solution (TMB(eBioscience, Cat No:00-4201-56) was added and the plates were incubated for 2min at room temperature. 100 μL/well of stop solution (2N H2SO4) was added to stop the reaction. The colorimetric signals were developed and read at 450 nm using a Auto Plate SpectraMax Plus (Supplier: Molecular Devices; Model: MNR0643; Software: SoftMax Pro v5.4).
as §3
As for B1, a half-maximal effect (EC50) was put at 0.0173 µg/mL.

On to B2, for which the response was half-maximal at 0.0134 µg/mL (EC50).

Take B3: the EC50 (in general, the concentration giving half of the maximal effect) was 0.0194 µg/mL.

For the molecule B4, a half-maximal effect (EC50) was put at 0.00932 µg/mL.

For another assay, the target named is T7, human PD-1 extracellular domain fused …. The experiment in a line: ELISA binding (summary table). Here is the method:
as §5, §3
In the case of B1, the EC50 came to 0.0173 µg/mL.

The molecule B2 had an EC50 of 0.0134 µg/mL.

Turning to B3, the EC50 is 0.0194 µg/mL.

B4 gave an EC50 of 0.00932 µg/mL.

Another assay deals with T5, human PD-1 (construct not stated). The experiment in a line: Biacore (summary table; unit from Table 7). On the procedure: as §2
Regarding B1, the Kd is 0.0278 nM.

In turn, B2 gave a Kd of 0.0184 nM.

The molecule B3 registered a Kd of 0.0193 nM.

The target of another assay is T3, mouse PD-1. The assay is described as follows: assays not detailed.
B1: the binding result was “no binding”.

Consider B2, for which the binding result is “no binding”.

As for B3, the binding result is on record as “no binding”.

B4: the binding result is “no binding”.

A further assay deals with T6, human PD-1 on cells (293T cells …). The assay is described as follows: FACS blockage on hPD-1-293T cells, competitor biotin PD-L1. Here is the method: as §4, §3
The molecule B1 displayed an IC50 of 0.0199 µg/mL.

The molecule B2 yielded an IC50 of 0.0356 µg/mL.

For the molecule B3, the IC50 was determined as 0.0562 µg/mL.

In the case of B4, the IC50 was 0.0289 µg/mL.

The target is the same in another assay. The assay is described as follows: FACS on hPD-1-293T cells. On the procedure:
The cells were incubated with the indicated antibody (20 ug/ml with the dilution of ⅕) at 4° C. for 1 h. Cells were washed three times with FACS buffer. A secondary antibody (PE Goat anti-mouse: 1:200; PE mouse anti-human: 1:10) was added to the cells at 100 ul/well, and incubated at 4° C. for 40min. Cells were washed three times with FACS buffer and analyzed by FACS Array.
as §3
Regarding B1, the response was half-maximal at 0.0308 µg/mL (EC50).

In turn, B2 registered an EC50 of 0.0454 µg/mL.

B3 had a half-maximal effective concentration (EC50) of 0.0775 µg/mL.

On to B4, for which the EC50 was found to be 0.0389 µg/mL.
